The values that follow come from article doi:10.1101/2023.06.22.546067 (bioRxiv, 2023).

The data set “cryo-EM structure” deals with the molecule itself. In words: cryo-EM structure.
Data set [1] has as its target T1, transcription termination factor ρ variant P167L (ρ^P167L), purified (E. coli, UniProt P0AG30, P167L). In words: stopped-flow/FRET.
Data set [2] addresses T1, transcription termination factor ρ …. In words: SEC. For orientation: Size exclusion chromatography separates by hydrodynamic size, large species first.

B1: phage P4 polarity suppression protein Psu, wild-type (Psu^wt), purified (natural protein)
chain: MESTALQQAFDTCQNNKAAWLQRKNELAAAEQEYLRLLSGEGRNVSRLDELRNIIEVRKWQVNQAAGRYIRSHEAVQHISIRDRLNDFMQQHGTALAAALAPELMGYSELTAIARNCAIQRATDALREALLSWLAKGEKINYSAQDSDILTTIGFRPDVASVDDSREKFTPAQNMIFSRKSAQLASRQSV
As usually defined, the stoichiometry N is the number of molecules, sites or subunits per partner or assembly. Consider B1, for which the “stoichiometry N” value in “cryo-EM structure” was determined as 2. Moreover, the binding result in data set [1] is reported as “binds”.

B2: Psu variant R43A (Psu^R43A), purified (natural protein)
chain: MESTALQQAFDTCQNNKAAWLQRKNELAAAEQEYLRLLSGEGANVSRLDELRNIIEVRKWQVNQAAGRYIRSHEAVQHISIRDRLNDFMQQHGTALAAALAPELMGYSELTAIARNCAIQRATDALREALLSWLAKGEKINYSAQDSDILTTIGFRPDVASVDDSREKFTPAQNMIFSRKSAQLASRQSV
On to B2, for which, in data set [2], the binding result is reported as “binds”.
